In publication PMC5516924 (Biochemistry, 2016):

Tests used:
crystal structure = target: the molecule itself; assay: crystal structure
SEC = target: the molecule itself; assay: SEC

Protein	stoichiometry N (crystal structure)	stoichiometry N (SEC)
yGsy2-R589A/R592A (enzyme, Saccharomyces cerevisiae) MSRDLQNHLLFETATEVANRVGGIYSVLKSKAPITVAQYKDHYHLIGPLNKATYQNEVDILDWKKPEAFSDEMRPVQHALQTMESRGVHFVYGRWLIEGAPKVILFDLDSVRGYSNEWKGDLWSLVGIPSPENDFETNDAILLGYTVAWFLGEVAHLDSQHAIVAHFHEWLAGVALPLCRKRRIDVVTIFTTHATLLGRYLCASGSFDFYNCLESVDVDHEAGRFGIYHRYCIERAAAHSADVFTTVSQITAFEAEHLLKRKPDGILPNGLNVIKFQAFHEFQNLHALKKEKINDFVRGHFHGCFDFDLDNTLYFFIAGRYEYKNKGADMFIEALARLNYRLKVSGSKKTVVAFIVMPAKNNSFTVEALKGQAEVRALENTVHEVTTSIGKRIFDHAIRYPHNGLTTELPTDLGELLKSSDKVMLKRRILALRRPEGQLPPIVTHNMVDDANDLILNKIRQVQLFNSPSDRVKMIFHPEFLNANNPILGLDYDEFVRGCHLGVFPSYYEPWGYTPAECTVMGVPSITTNVSGFGAYMEDLIETNQAKDYGIYIVDRRFKAPDESVEQLVDYMEEFVKKTRRQRINQRNATEALSDLLDWKRMGLEYVKARQLALRRGYPDQFRELVGEELNDSNMDALAGGKKLKVARPLSVPGSPRDLRSNSTVYMTPGDLGTLQEVNNADDYFSLGVNPAADDDDDGPYADDS	4	
yGsy2-R581C/R592C (enzyme, Saccharomyces cerevisiae) MSRDLQNHLLFETATEVANRVGGIYSVLKSKAPITVAQYKDHYHLIGPLNKATYQNEVDILDWKKPEAFSDEMRPVQHALQTMESRGVHFVYGRWLIEGAPKVILFDLDSVRGYSNEWKGDLWSLVGIPSPENDFETNDAILLGYTVAWFLGEVAHLDSQHAIVAHFHEWLAGVALPLCRKRRIDVVTIFTTHATLLGRYLCASGSFDFYNCLESVDVDHEAGRFGIYHRYCIERAAAHSADVFTTVSQITAFEAEHLLKRKPDGILPNGLNVIKFQAFHEFQNLHALKKEKINDFVRGHFHGCFDFDLDNTLYFFIAGRYEYKNKGADMFIEALARLNYRLKVSGSKKTVVAFIVMPAKNNSFTVEALKGQAEVRALENTVHEVTTSIGKRIFDHAIRYPHNGLTTELPTDLGELLKSSDKVMLKRRILALRRPEGQLPPIVTHNMVDDANDLILNKIRQVQLFNSPSDRVKMIFHPEFLNANNPILGLDYDEFVRGCHLGVFPSYYEPWGYTPAECTVMGVPSITTNVSGFGAYMEDLIETNQAKDYGIYIVDRRFKAPDESVEQLVDYMEEFVKKTRCQRINQRNRTECLSDLLDWKRMGLEYVKARQLALRRGYPDQFRELVGEELNDSNMDALAGGKKLKVARPLSVPGSPRDLRSNSTVYMTPGDLGTLQEVNNADDYFSLGVNPAADDDDDGPYADDS		4
yGsy2-R581A/R592A (enzyme, Saccharomyces cerevisiae) MSRDLQNHLLFETATEVANRVGGIYSVLKSKAPITVAQYKDHYHLIGPLNKATYQNEVDILDWKKPEAFSDEMRPVQHALQTMESRGVHFVYGRWLIEGAPKVILFDLDSVRGYSNEWKGDLWSLVGIPSPENDFETNDAILLGYTVAWFLGEVAHLDSQHAIVAHFHEWLAGVALPLCRKRRIDVVTIFTTHATLLGRYLCASGSFDFYNCLESVDVDHEAGRFGIYHRYCIERAAAHSADVFTTVSQITAFEAEHLLKRKPDGILPNGLNVIKFQAFHEFQNLHALKKEKINDFVRGHFHGCFDFDLDNTLYFFIAGRYEYKNKGADMFIEALARLNYRLKVSGSKKTVVAFIVMPAKNNSFTVEALKGQAEVRALENTVHEVTTSIGKRIFDHAIRYPHNGLTTELPTDLGELLKSSDKVMLKRRILALRRPEGQLPPIVTHNMVDDANDLILNKIRQVQLFNSPSDRVKMIFHPEFLNANNPILGLDYDEFVRGCHLGVFPSYYEPWGYTPAECTVMGVPSITTNVSGFGAYMEDLIETNQAKDYGIYIVDRRFKAPDESVEQLVDYMEEFVKKTRAQRINQRNRTEALSDLLDWKRMGLEYVKARQLALRRGYPDQFRELVGEELNDSNMDALAGGKKLKVARPLSVPGSPRDLRSNSTVYMTPGDLGTLQEVNNADDYFSLGVNPAADDDDDGPYADDS		4
